{"source": "paper PMC7617061", "molecular_target": "U1-C zinc finger (UniProt P09234)", "sequence (P09234 1-61)": "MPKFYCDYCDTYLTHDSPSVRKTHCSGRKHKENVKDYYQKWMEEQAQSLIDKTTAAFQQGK", "assay": "NMR titration", "details": "pseudouridine at U1 strand positions 5 and 6"}
{"sequence": "AUACUUACCUG / GGAGUAAGUCU [U1 snRNA 5'-end / SMN2 E7 5'-SS RNA duplex]", "values": [{"measurement": "binding signal (fold affinity increase vs no SMN-C5)", "value": 3}]}
